# Source: patent US8772452B2, “Calcium-binding photoprotein” (JNC Corporation, priority 2009, dated 2014)
# Tests used:
# [1] = Luminescence pattern triggered by addition of calcium (luminescence plate reader Centro LB960); type: biochemical
# Experimental: The luminescence activity of the recombinant clytin-ESNA of EXAMPLE 4 was measured as follows. After mixing 2-mercaptoethanol (1 μl) and substrate coelenterazine (1 μg/μl dissolved in ethanol) with 30 mM Tris-HCl (pH 7.6) containing 10 mM EDTA, the recombinant apoclytin-ESNA at each purification step was added to the mixture. The reaction was carried out on ice (4° C.) for 2 hours to regenerate recombinant clytin-ESNA. The luminescence reaction was triggered by adding a 50 mM calcium solution (100 μl/well) to 1 μl of this regenerated recombinant clytin-ESNA solution. The luminescence activity was measured for 10 seconds using a luminescence plate reader Centro LB960 (manufactured by Berthold) and expressed in terms of the maximum luminescence intensity (Imax).
# In order to compare the luminescence properties between the recombinant clytin-ESNA (CLI-ESNA) obtained in EXAMPLE 5 and other holoproteins (aequorin (AQ)), clytin-I (CL-I), clytin-II (CL-II)) and obelin (Ob)), the luminescence patterns triggered by the addition of calcium were compared.
# The luminescence patterns of CLI-ESNA, AQ, CL-I, CL-II and Ob were measured as follows. […] The luminescence reaction was initiated by adding 100 μl/well of a 50 mM calcium solution to this reconstitution solution. […]
# [2] = Bioluminescence emission spectrum on addition of CaCl2 (JASCO FP-6500, excitation source off); type: physicochemical; settings: 0.1 ml of 50 mM CaCl2 added to 1 ml of 50 mM Tris-HCl (pH 7.6), 0.02 mg protein
# Experimental: Bioluminescence emission spectra of the recombinant clytin-ESNA obtained in EXAMPLE 4, 5) were measured in a quartz cell having a 10 mm optical path under the given conditions (band width for emission/excitation: 20 nm, response: 0.5 sec, scan speed: 2000 nm/min) using a fluorescence spectrophotometer (JASCO FP-6500) with the excitation source turned off.
molecule,measurement,setting,value
"recombinant clytin-ESNA: Holoprotein (calcium-binding photoprotein) regenerated from recombinant apoclytin-ESNA (SEQ ID NO: 2/6) and coelenterazine (protein, coelenterazine) VKLRPNFDNPKWVNRHKFMFNFLDINGDGKITLDEIVSKASDDICAKLGATPEQTKRHQDAVEAFFKKIGMDYGKEVEFPAFVDGWKELANYDLKLWSQNKKSLIRDWGDAVFDIFDKDGSGSISLDEWKAYGRISGICPSDEDAEKTFKHCDLDNSGKLDVDEMTRQHLGFWYTLDPTSDGLYGNFVP",decay pattern of the luminescence patterns,"[1]; 100 μl/well of 50 mM calcium solution, measured for 10 seconds, as compared to AQ, Cl-I, Ob",rapid decay pattern
same,S/N ratio,"[1]; compared with Cl-I, luminescence triggered by calcium",higher S/N ratio than Cl-I
same,bioluminescence emission maximum wavelength,[2],470 nm
